This passage reports stoichiometry N results from paper PMC8501605.

The experiment has as its target T1, pseudokinase mixed lineage kinase domain-like (MLKL) (human (endogenous in post-mortem hippocampus)), Q8NB16.
T1 chain: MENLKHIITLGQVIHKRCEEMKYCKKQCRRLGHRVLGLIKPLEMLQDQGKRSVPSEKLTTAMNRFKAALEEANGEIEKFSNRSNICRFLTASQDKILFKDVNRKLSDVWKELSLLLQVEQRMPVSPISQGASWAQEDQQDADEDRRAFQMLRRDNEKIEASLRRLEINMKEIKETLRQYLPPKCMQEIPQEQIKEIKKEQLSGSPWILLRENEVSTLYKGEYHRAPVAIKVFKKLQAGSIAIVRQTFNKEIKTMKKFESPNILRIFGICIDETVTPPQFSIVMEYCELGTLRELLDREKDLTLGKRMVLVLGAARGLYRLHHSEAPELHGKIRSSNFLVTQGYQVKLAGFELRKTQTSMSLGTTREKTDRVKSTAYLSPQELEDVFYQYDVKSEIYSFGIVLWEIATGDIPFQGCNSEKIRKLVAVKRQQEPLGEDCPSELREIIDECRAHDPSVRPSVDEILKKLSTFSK
Put plainly: non-reducing gel and western blot; hippocampal grey matter extracted in native conditions (TBS, 0.1% Triton X-100), run on 7.5% gel in non-reducing conditions, blot for MLKL; AD (n = 14) and control (n = 8) cases. The note with it: remark: other sources report otherwise.

B1: pseudokinase mixed lineage kinase domain-like (MLKL), Q8NB16 1-471 (natural protein)
chain: MENLKHIITLGQVIHKRCEEMKYCKKQCRRLGHRVLGLIKPLEMLQDQGKRSVPSEKLTTAMNRFKAALEEANGEIEKFSNRSNICRFLTASQDKILFKDVNRKLSDVWKELSLLLQVEQRMPVSPISQGASWAQEDQQDADEDRRAFQMLRRDNEKIEASLRRLEINMKEIKETLRQYLPPKCMQEIPQEQIKEIKKEQLSGSPWILLRENEVSTLYKGEYHRAPVAIKVFKKLQAGSIAIVRQTFNKEIKTMKKFESPNILRIFGICIDETVTPPQFSIVMEYCELGTLRELLDREKDLTLGKRMVLVLGAARGLYRLHHSEAPELHGKIRSSNFLVTQGYQVKLAGFELRKTQTSMSLGTTREKTDRVKSTAYLSPQELEDVFYQYDVKSEIYSFGIVLWEIATGDIPFQGCNSEKIRKLVAVKRQQEPLGEDCPSELREIIDECRAHDPSVRPSVDEILKKLSTFSK
In general, stoichiometry N refers to a count of units in the complex or per binding partner. The molecule B1 had a stoichiometry N of 4.
